Paper PMC4001326, “DNA polymerase V activity is autoregulated by a novel intrinsic DNA-dependent ATPase”
Several values for one entry are separate records, joined by “and”; a condition that tells them apart may be missing. Equal values may be shown once.

Columns and labels:
[1] = target: pol V Mut E38K/K72R K72R;RecA:E38K (Escherichia coli (pol V from strain RW644)) (UniProt P0AG11+P04152+P0A7G6); assay: fluorescence anisotropy; conditions: fluorescein-dT replacing T44 (from parent S5); 20 mM Tris-HCl pH 7.5, 25 mM Na glutamate, 8 mM MgCl2, 8 mM DTT, 4% glycerol, 0.1 mM EDTA, 37 C; 50 nM labeled hairpin; 500 uM ATP or ATPgS (titrations to …)
[2] = target: pol V Mut E38K/ΔC17 del17-17;RecA:E38K (Escherichia coli (pol V from strain RW644)) (UniProt P0AG11+P04152+P0A7G6); assay: fluorescence anisotropy; conditions: fluorescein-dT replacing T44 (from parent S5); 20 mM Tris-HCl pH 7.5, 25 mM Na glutamate, 8 mM MgCl2, 8 mM DTT, 4% glycerol, 0.1 mM EDTA, 37 C; 50 nM labeled hairpin; 500 uM ATP or ATPgS (titrations to …)
[3] = target: T1, pol V Mut WT (UmuD'2C-RecA-ATP) (Escherichia coli (pol V from strain …, UniProt P0AG11;P04152;P0A7G6 25-139;1-422;2-353)); assay: fluorescence anisotropy; ATPgS titration, saturating at about 220 uM; 20 mM Tris-HCl pH 7.5, 25 mM Na glutamate, 8 mM MgCl2, 8 mM DTT, 4% glycerol, 0.1 mM EDTA, 37 C; 50 nM labeled hairpin; 500 uM ATP or ATPgS (titrations to 750 uM); conditions: protein: recombinant, tags: His (pol V), chain copies: 2;1;1, label: fluorescein (internal dT), 18 bp stem, 5' overhang 3 nt by name
[4] = target: T1, pol V Mut WT (UmuD'2C-RecA-ATP); assay: fluorescence anisotropy; 500 uM ATPgS; 20 mM Tris-HCl pH 7.5, 25 mM Na glutamate, 8 mM MgCl2, 8 mM DTT, 4% glycerol, 0.1 mM EDTA, 37 C; 50 nM labeled hairpin; 500 uM ATP or ATPgS (titrations to 750 uM); conditions: protein: recombinant, tags: His (pol V), chain copies: 2;1;1, label: fluorescein (internal dT), 18 bp stem, 5' overhang 12 nt

For “CGAAACAGGAAAGCAGTTAGCGCATTCAGCTCATACTGCTGAATGCGCTAACTGC [Fluorescein 12 nt oh HP]”, the Kd [1] was 920 nM and the Kd [2] was 312 nM and 469 nM.

AGAGCAGTTAGCGCATTCAGCTCATACTGCTGAATGCGCTAACTGC (structured_DNA, fluorescein-dT replacing T17 (from parent S1)) [Fluorescein 3 nt oh HP]: binds [3].

B1: Fluorescein 12 nt oh HP (structured_DNA)
DNA: CGAAACAGGAAAGCAGTTAGCGCATTCAGCTCATACTGCTGAATGCGCTAACTGC
modifications: fluorescein-dT replacing T44 (from parent S5)
B1 showed a Kd [4] of 876 ± 52 nM.
